Biological target: α6β1. α6β4 (human) (UniProt P23229)
Experiment: flow cytometry on HMVEC-d; dis-Fc binding with 5-8 fold excess α6β1/α6β4 mAb (GoH3, 439-9B; competitor) vs control mAb

ADAM-23dis-Fc (Fc fusion), sequence (chain): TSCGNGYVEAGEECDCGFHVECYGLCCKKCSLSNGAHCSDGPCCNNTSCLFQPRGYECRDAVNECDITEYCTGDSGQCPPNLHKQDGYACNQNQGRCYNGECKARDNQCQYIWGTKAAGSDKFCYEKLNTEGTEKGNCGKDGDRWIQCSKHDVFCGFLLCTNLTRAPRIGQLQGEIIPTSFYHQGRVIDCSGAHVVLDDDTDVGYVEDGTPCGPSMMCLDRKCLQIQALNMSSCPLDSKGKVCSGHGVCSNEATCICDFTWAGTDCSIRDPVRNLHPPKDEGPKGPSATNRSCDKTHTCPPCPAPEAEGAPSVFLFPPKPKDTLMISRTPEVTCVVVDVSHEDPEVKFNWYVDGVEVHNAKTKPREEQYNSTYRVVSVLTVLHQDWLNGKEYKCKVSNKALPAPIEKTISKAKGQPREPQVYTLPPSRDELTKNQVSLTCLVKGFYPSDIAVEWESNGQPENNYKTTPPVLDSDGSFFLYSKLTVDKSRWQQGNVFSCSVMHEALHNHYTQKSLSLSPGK
ADAM-22dis-Fc (Fc fusion), sequence (chain): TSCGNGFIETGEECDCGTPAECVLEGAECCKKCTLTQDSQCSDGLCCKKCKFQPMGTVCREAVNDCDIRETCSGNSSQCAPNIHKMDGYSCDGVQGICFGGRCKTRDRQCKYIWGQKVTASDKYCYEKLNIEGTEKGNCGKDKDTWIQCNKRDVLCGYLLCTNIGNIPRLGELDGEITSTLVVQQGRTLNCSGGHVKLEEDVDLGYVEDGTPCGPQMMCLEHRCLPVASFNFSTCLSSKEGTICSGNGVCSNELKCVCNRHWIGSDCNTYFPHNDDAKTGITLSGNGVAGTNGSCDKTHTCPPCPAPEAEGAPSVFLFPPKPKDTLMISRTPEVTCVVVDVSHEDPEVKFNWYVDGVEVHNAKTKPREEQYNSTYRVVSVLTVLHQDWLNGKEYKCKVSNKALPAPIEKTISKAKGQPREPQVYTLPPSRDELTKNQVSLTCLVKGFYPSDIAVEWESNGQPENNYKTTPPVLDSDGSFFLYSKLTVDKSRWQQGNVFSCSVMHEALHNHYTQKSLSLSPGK

| percent inhibition of binding [%] | Substance |
| --- | --- |
| 32 | ADAM-22dis-Fc (Fc fusion) |
| 31 | ADAM-23dis-Fc (Fc fusion) |
